Values quoted from earlier work as cited in patent US12065466B2, “Methods and compositions for protein sequencing” (Quantum-Si Incorporated, priority 2020, dated 2024).
Substitutions are numbered along the chain they refer to.

Test system: amino acid at a terminal position of a polypeptide
Conditions: Table 2; amino acid identity at a terminal position (phosphotyrosine also internal); inferred from literature and/or demonstrated by the inventors; cited from earlier work

B1: PS25: SEQ ID NO: 167 (protein, listed as Saccharomyces cerevisiae)
chain: MGSVHKHTGRNCGRKFKIGEPLYRCHECGCDDTCVLCIHCFNPKDHVNHHVCTDICTEFTSGICDCGDEEAWNSPLHCKAEEQ
  Binding Pref.: K, R, H

B2: PS619: UBR-box domain homolog, SEQ ID NO: 179 (protein, listed as Vanderwaltozyma polyspora)
chain: MENLHIGSCCNRQCYPTQTVYYCLTCTINPLYEICELCFDEDKHVGHTYISKSVIRPEGKVCHCGNPNVFKKPEFAFNCKN
  Binding Pref.: K, R, H

B3: PS540: UBR-box domain homolog, SEQ ID NO: 169 (protein, listed as Clathrospora elynae)
chain: MPCGHIFKNGEATYRCKTCTADDTCVLCARCFDASDHEGHQVFVSVSPGNSGCCDCGDDEAWVRPVHCNMHSA
  Binding Pref.: K, R, H

B4: PS521: UBR-box domain homolog, SEQ ID NO: 149 (protein)
chain: MLCGRVFRSGEPTYSCRDCAVDPTCVLCIDCFNNGAHRKHKYRMSTSSGGGYCDCGDKEAWKTDPLCEIHRK
modifications: Lingula anatine
  Binding Pref.: K, R, H

B5: PS543: UBR-box domain homolog, SEQ ID NO: 172 (protein, listed as Trichinella spiralis)
chain: MKCNRQLICGEPTYCCLDCACDQTCIFCHACFQSSEHKNHRYSMSTSEGSGTCDCGDKEAWKSNYYCLNHKP
  Binding Pref.: K, R, H

B6: PS523: UBR-box domain homolog, SEQ ID NO: 151 (protein)
chain: MAKSHRHTGRNCGRAFQPGEPLYRCQECAYDDTCVLCISCFNPDDHVNHHVSTHICNELHDGICDCGDAEAWNVPLHCKAEED
modifications: Saccharomycetaceae sp. Ashbya aceri
  Binding Pref.: K, R, H

B7: PS536: UBR-box domain homolog, SEQ ID NO: 164 (protein, listed as Aphis gossypii)
chain: MVCGRVFKMGEPTYNCRECGMDSTCVLCVDCFKRSPHKNHKYKMGTSYGGGCCDCGDVEAWKHDPYCQTHKL
  Binding Pref.: K, R, H

B8: PS517: UBR-box domain homolog, SEQ ID NO: 145 (protein)
chain: MMCGRVFKMGEPTYSCRECGVDSTCVLCVGCFQQSAHRDHKYKMGTSGGGGCCDCGDTEAWKRDPFCEIHMV
modifications: Harpegnathos saltator
  Binding Pref.: K, R, H

B9: PS518: UBR-box domain homolog, SEQ ID NO: 146 (protein, listed as Nilaparvata lugens)
chain: MVCGRVFKMGEPSYHCRECGMDATCVLCVDCFKKSSHRNHKYKMGTSIGGGCCDCGDVEAWKTEPYCEVHIA
  Binding Pref.: K, R, H

B10: PS534: UBR-box domain homolog, SEQ ID NO: 162 (protein)
chain: MKCGHIFRKGEVFYRCKTCSVDSNSALCVKCFRATSHKDHETSFTVSAGSGGCCDCGNAAAWIGDVSCKIHSH
modifications: Schizosaccharomyces pombe
  Binding Pref.: K, R, H

B11: PS527: UBR-box domain homolog, SEQ ID NO: 155 (protein, listed as Mizuhopecten yessoensis)
chain: MLCGKVFKYGEPTYSCRDCANDPTCVLCIDCFQKSAHKKHRYKMSTSGGGGYCDCGDSEAWKTAPFCSNHKA
  Binding Pref.: K, R, H

B12: PS542: UBR-box domain homolog, SEQ ID NO: 171 (protein, listed as Trichuris suis)
chain: MRCNHVFANGEATYSCRGCAADPTCVLCASCFELSAHKEHKYMITTSSGTGYCDCGDPEAWKADPFCQQHQP
  Binding Pref.: K, R, H

B13: PS537: UBR-box domain homolog, SEQ ID NO: 165 (protein, listed as Aedes aegypti)
chain: MVCGRVFKIGEPTYSCRECSMDPTCVLCSSCFKKSSHRLHKYKMSTSGGGGCCDCGDHEAWKRDPSCEEHAV
  Binding Pref.: K, R, H

B14: PS544: UBR-box domain homolog, SEQ ID NO: 173 (protein, listed as Homo sapiens)
chain: MGPLGSLCGRVFKSGETTYSCRDCAIDPTCVLCMDCFQDSVHKNHRYKMHTSTGGGFCDCGDTEAWKTGPFCVNHEP
  Binding Pref.: K, R, H

B15: PS620: UBR-box domain homolog, SEQ ID NO: 180 (protein, listed as Saccharomyces cerevisiae)
chain: MGNMHIGTACTRLCFPSETIYYCFTCSTNPLYEICELCFDKEKHVNHSYVAKVVMRPEGRICHCGDPFAFNDPSDAFKCKN
  Binding Pref.: K, R, H

B16: Homo sapiens UBR2: SEQ ID NO: 174 (protein, listed as Homo sapiens)
chain: MGPLGSLCGRVFKVGEPTYSCRDCAVDPTCVLCMECFLGSIHRDHRYRMTTSGGGGFCDCGDTEAWKEGPYCQKHE
  Binding Pref.: K, R, H

B17: PS541: UBR-box domain homolog, SEQ ID NO: 170 (protein)
chain: MRCGHIFRAGEATYRCITCAADDTCVLCSRCFDASDHTGHQYQISLSSGNCGCCDCGDEEAWRLPLFCAIHTD
modifications: Aspergillus neoniger
  Binding Pref.: K, R, H

B18: PS539: UBR-box domain homolog, SEQ ID NO: 168 (protein, listed as Kazachstania africana)
chain: MQTSFTHKGRNCGRKFKVGEPLYRCHECGFDDTCVLCIHCFNPADHENHHIYTDICNDFTSGICDCGDTEAWNGDLHCKAEEI
  Binding Pref.: K, R, H

B19: PS618: UBR-box domain homolog, SEQ ID NO: 178 (protein, listed as Zygosaccharomyces bailii)
chain: MNASHKGAMCSKQCYPTETVFYCFTCTTNPLYEICESCFDEEKHRGHLYTAKVVVRPEGRVCHCGDPFVFKEPRFAFLCKN
  Binding Pref.: K, R, H

B20: PS615: UBR-box domain homolog, SEQ ID NO: 175 (protein, listed as Kluyveromyces marxianus)
chain: MVNEHRGSQCSKQCHGTETVYYCFDCTKNPLYEICEECFDETQHMGHRYTSRVVTRPEGKVCHCGDISGYNNPEKAFQCKI
  Binding Pref.: K, R, H

B21: PS616: UBR-box domain homolog, SEQ ID NO: 176 (protein, listed as Kluyveromyces lactis)
chain: B20 chain with V2H, E4D, E37D, T42S, M45I, G69S, N72D, E74K, K80R
  Binding Pref.: K, R, H

B22: PS520: UBR-box domain homolog, SEQ ID NO: 148 (protein, listed as Monopterus albus)
chain: MLCGRVFKEGETVYSCRDCAIDPTCVLCMDCFQDSVHKSHRYKMHASSGGGFCDCGDVEAWKIGPCCSKHDP
  Binding Pref.: K, R, H

B23: PS526: UBR-box domain homolog, SEQ ID NO: 154 (protein, listed as Maylandia zebra)
chain: B22 chain with C66Y
  Binding Pref.: K, R, H

B24: PS524: UBR-box domain homolog, SEQ ID NO: 152 (protein, listed as Drosophila ficusphila)
chain: MVCGKVFKNGEPTYSCRECGVDPTCVLCVNCFKRSAHRFHKYKMSTSGGGGCCDCGDDEAWKKDHYCQLHLA
  Binding Pref.: K, R, H

B25: PS531: UBR-box domain homolog, SEQ ID NO: 159 (protein, listed as Musca domestica)
chain: B24 chain with N9I, V21M, P23Q, R34Q, F39Y, D58E, Q68E, L69E, A72R
  Binding Pref.: K, R, H

B26: PS617: UBR-box domain homolog, SEQ ID NO: 177 (protein, listed as Eremothecium sinecaudum)
chain: MPKEHRGTSCNKHCQPTETVYYCFDCTKNPLYEICEECFDADKHLGHRWTSKVVSRPEGKICHCGDPSGLTDPENGYECKN
  Binding Pref.: K, R, H

B27: PS519: UBR-box domain homolog, SEQ ID NO: 147 (protein, listed as Manduca sexta)
chain: MLCGRVFKQGEPAYSCRECGMDNTCVLCVECFKVSAHRHHKYKMGQSGGGGCCDCGDTEAWKRDPFCELHAA
  Binding Pref.: K, R, H

B28: PS530: UBR-box domain homolog, SEQ ID NO: 158 (protein, listed as Acropora millepora)
chain: MLCGKVFKVGEPTYSCRDCGYDNTCVLCINCFQKSIHKNHHYKMNTSGGGGVCDCGDVEAWKEGEACEIHQQ
  Binding Pref.: K, R, H

B29: PS533: UBR-box domain homolog, SEQ ID NO: 161 (protein, listed as Contarinia nasturtii)
chain: MVCGRVFKMNEPFYSCRECGMDPTCVLCVNCFKQSAHRHHKYKMGTSAGGGCCDCGDNEAWKQDHYCDEHTK
  Binding Pref.: K, R, H

B30: PS516: UBR-box domain homolog, SEQ ID NO: 144 (protein)
chain: MLCGKVFKTGEPTYSCRDCANDPTCVLCIDCFQNGAHKNHRYKMNTSGGGGYCDCGDQEAWTSHPFCNLHSP
modifications: Crassostrea gigas
  Binding Pref.: K, R, H

B31: PS525: UBR-box domain homolog, SEQ ID NO: 153 (protein, listed as Mus musculus)
chain: MLCGKVFKSGETTYSCRDCAIDPTCVLCMDCFQSSVHKNHRYKMHTSTGGGFCDCGDTEAWKTGPFCVDHEP
  Binding Pref.: K, R, H

B32: PS529: UBR-box domain homolog, SEQ ID NO: 157 (protein)
chain: B31 chain with S9G, S34N, V36I, F66L, V68A, D69N
modifications: Chelonia mydas
  Binding Pref.: K, R, H

B33: PS532: UBR-box domain homolog, SEQ ID NO: 160 (protein, listed as Schizosaccharomyces cryophilus)
chain: MSCGRIFKKGEVFYRCKTCSVDSNSALCVKCFRATDHHGHETSFTISAGSGGCCDCGNSAAWIRDMPCKIHNR
  Binding Pref.: K, R, H
